# In article PMC8882475:
# Tests used:
# Experiment in all cases: BLI
# [1] = biological target: biotinylated SARS-CoV-2 S protein RBD, Beta variant (K417N, E484K, N501Y) (SARS-CoV-2) (UniProt P0DTC2)
# [2] = biological target: SI–F019, huACE2 (18–615) - IgG1 Fc null (human) (UniProt Q9BYF1)
# [3] = biological target: Bamlanivimab
# [4] = biological target: SARS-CoV-2 RBD, Kappa (L452R, E484Q) (SARS-CoV-2) (UniProt P0DTC2)
# [5] = biological target: SARS-CoV-2 RBD (original, WT) (SARS-CoV-2) (UniProt P0DTC2)
# [6] = biological target: SARS-CoV-2 RBD, Delta (L452R, T478K) (SARS-CoV-2) (UniProt P0DTC2)
# [7] = biological target: SARS-CoV-2 RBD, Alpha (N501Y) (SARS-CoV-2) (UniProt P0DTC2)
# [8] = biological target: SARS-CoV-2 RBD, Gamma (K417T, E484K, N501Y) (SARS-CoV-2) (UniProt P0DTC2)
# [9] = biological target: SARS-CoV-2 RBD, Lambda (L452Q, F490S) (SARS-CoV-2) (UniProt P0DTC2)
# [10] = biological target: SARS-CoV-2 spike trimer, full-length extracellular domain (ECD), His tagged (SARS-CoV-2) (UniProt P0DTC2)
# [11] = biological target: SARS-CoV-2 RBD, Beta (K417N, E484K, N501Y) (SARS-CoV-2) (UniProt P0DTC2)
# [12] = biological target: SARS-CoV-2 S1 protein (SARS-CoV-2)
substance,measurement,setting,value
Imdevimab (antibody),Kd,[1],< 0.001 nM
"SARS-CoV-2 RBD, Delta (L452R, T478K) (from UniProt P0DTC2) (domain or fragment)",Kd,[2],7.26 nM
"SARS-CoV-2 RBD, Lambda (L452Q, F490S) (from UniProt P0DTC2) (domain or fragment)",Kd,[2],13.5 nM
SARS-CoV-2 S1 protein (domain or fragment),Kd,[2],14.7 nM
same,koff,[2],0.00493 s⁻¹
same,kon,[2],337000 M⁻¹ s⁻¹
"SARS-CoV-2 S protein RBD, Delta variant (L452R, T478K) (from UniProt P0DTC2) (domain or fragment)",Kd,[3],3.61 nM
"SI–F019, huACE2 (18–615) - IgG1 Fc null (from UniProt Q9BYF1-1 18-615) (Fc fusion)",Kd,[4],< 0.001 nM
same,Kd,[5],0.114 nM
same,Kd,[6],0.0141 nM
same,Kd,[7],0.019 nM
same,Kd,[8],0.0623 nM
same,Kd,[9],0.0892 nM
same,Kd,[10],0.18 nM
same,Kd,[11],0.0635 nM
same,Kd,[12],0.29 nM
Tixagevimab (antibody),Kd,[1],< 0.001 nM
